Reference: the supplement of paper PMC9170038

Test system: MS2 coat protein
Assay: apparent KD of MS2 coat protein; designed switch direction (-1 OFF switch, 1 ON switch): -1; higher = weaker reporter binding
How it was run: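 An oligonucleotide input, 200 uM small-molecule ligand, or no input was present during titration of SNAP-549-labelled MS2 coat protein, which was doubled from 0.7 or 1.5 nM to 3 µM. Designed RNA switches had been transcribed on Illumina chips by stalled E. coli RNA polymerase. Apparent KD per design is the median over clusters of curves fitted to normalised cluster fluorescence.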

[1] = input ligand: microRNA oligo, concentration not stated
[2] = Eterna round: R95, input ligand: FMN 200 uM
[3] = Eterna round: R95, input ligand: microRNA oligo, concentration not stated
[4] = Eterna round: R95, input ligand: none

Sequence | apparent KD of MS2 coat protein (input ligand: FMN 200 uM) [nM] | apparent KD of MS2 coat protein [1] [nM] | apparent KD of MS2 coat protein (input ligand: none) [nM] | apparent KD of MS2 coat protein [2] [nM] | apparent KD of MS2 coat protein [3] [nM] | apparent KD of MS2 coat protein [4] [nM]
UACAUGAGGAUCACCCAUGUUUUGUCGUGUUUGGUACCCGUUUAGGAUAUCGUGUUAUUGUAUCGCGAGAAGGAGAGUAUCUUU [Excl-NG3-LRO09] (Eterna round: R96, puzzle: Exclusion NG 3) | 30.9 | 27.1 | 27 | – | – | –
UAUGGUUAAGUCAGGAUAUGCACGCAGAUUACAAUGCAGAAGGGACAUGAGGAUCACCCAUGUACACUCGUGUU [Ex4 #80] (Eterna round: R97, puzzle: Brourd's mod of Exclusion 4) | 40.7 | – | 31.8 | – | – | –
CUGAGGUAGCGGUCCUAUGACAUGAGGAUCACCCAUGUACCUUGCUUUGAGCAUUUUGCUCGUCUUAUGAUUCUCGG [Mat - Sensor v3 - turn-off var 1 - JL Mod - D39] (puzzle: Sensor v3, turn-off variant 1) | – | – | – | 371 | 474 | 427
CAGUAGGCAGGAUAUACAUGAGGAUCACCCAUGUGAUUUAGUGCACGCGUACGUGUACGUAGAAGGGCCUACUG [JL 3.27 m7] (Eterna round: R97, puzzle: Exclusion 3) | 91.8 | – | 17.9 | – | – | –
UUUUAGAGAGGAUAUACAUUUUUUUAUUUAUUUAUAAUAUUACAUGAGGAUCACCCAUGUAGAAGGCUCAUUUU [My Design] (puzzle: Exclusion 2) | – | – | – | – | 25.8 | –
GGUGGACAUGAGGAUCACCCAUGUGAGGAUAUCGGCCGGUUCGUGGUGGCUGGCCUCUCGAGAAGGCGCAUAGU [Exclusion 1 V73] (puzzle: Exclusion 1) | – | – | – | – | 44.1 | –
GUCAGCUCGUGAGGAUAUGUAUAUACAUGAGGAUCACCCAUGUUAGAUCUGCUUCGGCUGUAUAUACAGAAGGCACGAGCUGAC [ENG2/16-A1] (Eterna round: R96, puzzle: Exclusion NG 2) | 504 | 382 | 308 | – | – | –
AGCUGUGGCCGAGGAUAUGACAUGAGGAUCACCCAUGUACCAGAUUAGGCCUGGUAACAGGCUCAUCAGAAGGCGGUCUCAGCA [Eli eng2 - 016] (Eterna round: R96, puzzle: Exclusion NG 2) | 13.5 | 10.7 | 14.8 | – | – | –
GGCCCUAAGGUCAGAUCCACAAGCUUUUUGCUCGUUUUAACAUGAGGAUCACCCAUGUCUAGUGGAUCUGAUCCUCU [Sensor v3, turn-off variant 2 (MOD of Indiso v.4)] (puzzle: Sensor v3, turn-off variant 2) | – | – | – | 25.2 | 15.4 | 21.6
CAUACACAUGAGGAUCACCCAUGUGAGGAUAUGCGUACGUUGUCAGUAGGCGACGUGCGCAGAAGGCGCGUGUU [Mat - Mod of JL D90] (puzzle: Exclusion 1) | – | – | – | – | 46.3 | –
CCUCUACAUGAGGAUCACCCAUGUGAGGAUAUCAAAGCCGAAGCAAAUCUCCGGCCCAUGAGAAGGUGCAUGGA [EX1 A.9] (Eterna round: R97, puzzle: Exclusion 1) | 87.4 | – | 19.5 | – | – | –
UAACCACAUGAGGAUCACCCAUGUGAGGAUAUGUCCAUAUUCGGCAAAUCGGAUAUGGACAGAAGGCACACCGG [JR_Exclusion1_Sub010] (puzzle: Exclusion 1) | – | – | – | – | 40.7 | –
ACAUGAGGAUCACCCAUGUCCGGCUGGUCUGUCUCGGCUGUCGAGGAUAUAGCACGGUAUCCGCGCUAGAAGGCGGGAGCCGGC [Aenatbe mod 89] (Eterna round: R96, puzzle: Exclusion NG 3) | 99.5 | 34.6 | 47.4 | – | – | –
UUUAUGUCAGGAUAUGAUUAGAUCUACUUCGGUAGAUCUAAUCAGAAGGGACAUGAGGAUCACCCAUGUAGUUU [Ex4 - 3 - 13] (puzzle: Exclusion 4) | – | – | – | – | 119 | –
AAUCCUGAAGUUAGGAUAUGAAGUAUCACUACACUUUAGAAGGAACUUGAGGAUCACCCAAGUAGCCGUGAGGC [jl-bmx4.4.65 ViennaUCT mod] (Eterna round: R97, puzzle: Brourd's mod of Exclusion 4) | 68 | – | 22.4 | – | – | –
GAAAAGGUAGAGGAUAUUUCAGAUCAAAGCUGCAAAGAAGGCUGCACAUGAGGAUCACCCAUGUGGUCUUUAAA [Mod of Quesina 10 - Jieux - Exclusion 6] (Eterna round: R97, puzzle: Exclusion 6) | 70.1 | – | 17.6 | – | – | –
CGCCGAGUGUUAGGAUAUCACAAGCAUAAGCGGUGAGAAGGAACAUGAGGAUCACCCAUGUACUGUCCCAUCGGGACAGGUUUC [Ribeon] (Eterna round: R96, puzzle: Exclusion NG 1) | 170 | 54 | 70.8 | – | – | –

Sequence | apparent KD of MS2 coat protein (input ligand: FMN 200 uM) [nM] | apparent KD of MS2 coat protein [1] [nM] | apparent KD of MS2 coat protein (input ligand: none) [nM] | apparent KD of MS2 coat protein [2] [nM] | apparent KD of MS2 coat protein [3] [nM] | apparent KD of MS2 coat protein [4] [nM]
ACUUGUGUUGAGGAUAUGCGACGCAACGGUGGAGCAGAAGGCGGCACAUGAGGAUCACCCAUGUCAGUUCGCGA [eternacac ex6r4 sub33] (Eterna round: R97, puzzle: Exclusion 6) | 86.3 | – | 14.6 | – | – | –
UUUUAGUCAGGAUAUACAUGAGGAUCACCCAUGUAAAAUUUUAAUUUAAUUUUAAGGUGUAGAAGGGACAAUCC [Ex3 #12] (Eterna round: R97, puzzle: Exclusion 3) | 43.1 | – | 38.9 | – | – | –
AGGAGCAGAGGGAGAUCCAACAUGAGGAUCACCCAUGUCUCAUAAGCUUUUUGCUCAUCUUAUUGUACCUUGGUGCA [Mat - Sensor v3 - turn-off var 1 - JL Mod - D27] (puzzle: Sensor v3, turn-off variant 1) | – | – | – | 29.2 | 12.5 | 22.3
CUCAUUUGUCAGGAUAUCGUGAGGCUAAUUAUACGAGAAGGGACGACAUGAGGAUCACCCAUGUGGUCUUUGAG [JR_Ex6_Sub082] (Eterna round: R97, puzzle: Exclusion 6) | 161 | – | 33.3 | – | – | –
UCACGGGACUGAGGAUAUACAUCAACCAUGGUUGUAGAAGGCAGAAGGUUGGAUCAUACACUAAACAUGAGGAUCACCCAUGUU [JR_ExcNG1_Sub029] (Eterna round: R96, puzzle: Exclusion NG 1) | 17.7 | 16.8 | 21.6 | – | – | –
UCUUAGCAAGCAAAUGGGUACAUGAGGAUCACCCAUGUGCUCGUCUUAUAAGGUACUGUGACGAAAGUCACGGUACC [mod--Eli8] (Eterna round: R97, puzzle: Sensor, turn-off variant 1) | 24.7 | – | 19.5 | – | – | –
UCGUGAUUAGAGGAUAUAUUUUGAGUCAGAACAAUAGAAGGCUAAACAUGAGGAUCACCCAUGUAUAUGUGUAA [JR_Ex6_Sub062] (Eterna round: R97, puzzle: Exclusion 6) | 140 | – | 46.7 | – | – | –
AGAAAGUCAGGAUAUACAUGAGGAUCACCCAUGUAAAGAAAAGAAAGGGAAGGAAGAGGUAGAAGGGACAAGAA [JR_Exclu3_Sub031] (puzzle: Exclusion 3) | – | – | – | 26.5 | 22.7 | 23
UGUUGUUCAGGAUAUGGUGUGUUGUACAUGAGGAUCACCCAUGUGGGUCCUGGUUUGGCGUCAGAAGGGAAUGUUG [salish99_ex5_r4_118] (Eterna round: R97, puzzle: Exclusion 5) | 482 | – | 778 | – | – | –
CCUCGACAUGAGGAUCACCCAUGUGAGGAUAUGACCUUAAAAGCGUGAGCAGUUUCUAUCAGAAGGCGCGUAGG [salish99_ex1_r4_071] (Eterna round: R97, puzzle: Exclusion 1) | 15.9 | – | 16 | – | – | –
UCCUCGUCAGGAUAUGUCUCGACGCGGUCCGCGUGCGGUCAACAGAAGGGACAUGAGGAUCACCCAUGUGCAGA [Eternabot (Original) Solution 38] (Eterna round: R97, puzzle: Exclusion 4) | 228 | – | 204 | – | – | –
AGAUGCUCAAGUCGACAUGAGGAUCACCCAUGUACAGUAAACGAGGAUAUCCGAGAUAAAUAAUAGGAGAAGGCGUGAUCAUGA [Mat - Exclusion NG 3 - Mod of JL - D55] (Eterna round: R96, puzzle: Exclusion NG 3) | 337 | 66 | 86.3 | – | – | –
UGCGGGCUUCUGAGACCUCACAUGAGGAUCACCCAUGUGCUUGUCUUGUAAGUGGGUAGGUCGUUGGCUGACUCACA (Eterna round: R97, puzzle: Sensor, turn-off variant 1) | 18.2 | – | 17.8 | – | – | –
CAGGAUAGAGGAUAUACAUAGAUACAGAUUCGUGUGAUCCUACAUGAGGAUCACCCAUGUAGAAGGCUAUCCUG [Fiskers Ex 2 - 23] (Eterna round: R96, puzzle: Exclusion 2) | 82 | 392 | 587 | – | – | –
GAUGUCCAGCGAGGAUAUCUGGUAAAUAAAAUGAGAGAAGGCGCGAAGACAUGAGGAUCACCCAUGUUGUCGCAUGGGAGCCUG [Enqurete] (Eterna round: R96, puzzle: Exclusion NG 1) | 116 | 22.9 | 29.1 | – | – | –
CUUAGUAUCUAGGAUAUCUAGUACAUAGUAUCUAGAGAAGGAGAUACAUGAGGAUCACCCAUGUUCUGUGAUCU [Exclusion 6 - 2:d] (puzzle: Exclusion 6) | – | – | – | – | 217 | –
GGAUCGAAUGUGAGGAUAUGCAGGUCCUUGGAUCUGCAGAAGGCACAUGAGGAUCACCCAUGUGAUCAAGAUCC [Mat - Exclusion 4 - Eli Mod - D48] (Eterna round: R97, puzzle: Brourd's mod of Exclusion 4) | 63 | – | 772 | – | – | –
